Results on one molecule are retold here after paper doi:10.1101/2025.08.22.671816 (bioRxiv, 2025).

The target of this test is T1, mCerulean-tagged GIPC (human, UniProt O14908 1-333).
T1 sequence (looked up): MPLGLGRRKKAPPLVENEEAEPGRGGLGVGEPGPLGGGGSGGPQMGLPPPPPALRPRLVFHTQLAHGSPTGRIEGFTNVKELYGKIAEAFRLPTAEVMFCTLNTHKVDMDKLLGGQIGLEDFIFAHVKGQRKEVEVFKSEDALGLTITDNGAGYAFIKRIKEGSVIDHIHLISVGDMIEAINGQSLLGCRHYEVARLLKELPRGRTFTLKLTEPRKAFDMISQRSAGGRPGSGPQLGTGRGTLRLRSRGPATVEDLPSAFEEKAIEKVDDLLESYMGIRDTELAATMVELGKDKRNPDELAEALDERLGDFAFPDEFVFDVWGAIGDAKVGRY
As to the kind of experiment: FRET or BRET. Background: BRET reads energy transfer from a luciferase to a nearby fluorophore.

Where no end group is shown, it is not given here.

B1: mCitrine-tagged GIPR C-tail, wild-type (domain or fragment, human, UniProt P48546 422-466, looked up)
chain: QLPERAFRALPSGSGPGEVPTSRGLSSGTLPGPGNEASRELESYC
modifications: also: mCitrine-tagged
Turning to B1, the binding result is “binds”.
